# The nanobody polyreactivity screen of Harvey et al. (2022)
# Test: yeast display, Sf9 membrane polyspecificity reagent, FACS + sequencing; frameworks hold sequencing errors
# Procedure, shortened: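 A nanobody's polyreactivity label depends on the gate it was sorted from. Yeast display cells were stained with 10% biotinylated, detergent-solubilized Sf9 membrane reagent for 1 hour at 4 °C, enriched on streptavidin microbeads and sorted by FACS. The low and high (top ~1%) gates were set on anti-HA fluorescence for expression and streptavidin fluorescence for reagent binding.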
row,Sequence,polyreactivity (PSR sort gate)
1,QVQLVESGGGLVQAGGSLRLSCAASGSIFAAYTMGWYRQAPGKERELVAAISVSTVSTNYADSVQGRFTISRDNAKNTVFLQMNRLKPEDTAVYYCNADATDSYPEKDEHDSWGQGTEVTVSS,low polyreactivity
2,QVQLVESGGGLVQAGGSLRLSCAASGSIFAAYTMGWYRQAPGKQRELVAAISSGTRTNYADSVKGRFTISRDNAKNTVYLQLNSLKPEDTAVYYWNADVSALWWPEEWYNASEFDYWGQGTQVTVSS,low polyreactivity
3,QVQLVESGGGLVQAGGSLRLSCAASGSIFADNAMGWDRQAPGKERELVAAISRTGGSTYYADSVKGRFTISRDNSKNTVYLQMNSLKPEDTAVYYCAADNGYGRYRRYYYWGQGTQVTVSS,high polyreactivity
4,QVQLVESGGGLVQAGGSLRLSCAASGSIFADNGMGWYRQAPGKERELVAAINSGSTYADSVKGRFTISRDNAKNTVYLQMNSLKPEDTAVYYCNADGVTSGRVDYWGQGTQVTVSS,low polyreactivity
5,QVQLVESGGGLVQAGGSLRLSCAASGSIFADYAMGWYRQAPGKERELVAAITASGGTTYYADSVKGRFTISRDNAKNTVYVQMNSLKPEDTAVYYCNAGNRTFLYDRDDYWGQGTQVSVSS,high polyreactivity
6,QVQLVESGGGLVQAGGSLRLSCAASGSIFADYTMGWYRQAPGKERELVAAISSDDSTYYADSVKGRFTISRDNAKNTVYLQMNSLKPEDTAVYYCNDDGSIGPEEYWGQGTQVTVSS,low polyreactivity
7,QVQLVESGGGLVQAGGSLRLSCAASGSIFAFNGMGGYRPAPGKERELVAGITISDSTNYADSVKGRFTISRDNAKNTVSLQMNSLKPEVTAVYYCNADYEQYVYWYWFIKYDYWGQVTQVTVSS,low polyreactivity
8,QVQLVESGGGLVQAGGSLRLSCAASGSIFAFNVMGWYRQAPGKERELVAAITWGGRTYYADSVKGRFTISRDNAKNTVYLQMNSLKPEDTAVYYCAAYPLYRVSHGYEYNYWGQGTQVTVSS,high polyreactivity
9,QVQLVESGGGLVQAGGSLRLSCAASGSIFAGYAMGWYRQAPGKERELVAAISSSGGRTYYADSVKGRFTISRDNAKNTVYLQMNSLKPVDTAVYYCAVSTYEEEYWGQGTQVTVSS,high polyreactivity
10,QVQLVESGGGLVQAGGSLRLSCAASGSIFAHNAMGWSRQAPGKESEMVAAISSGGSTNYADSVKGRFTISRDNAKNTVYLQMNSLKPEDTAVDYCAKSIDGWYWRRRRYDYWGQGTQVTVSS,low polyreactivity
11,QVQLVESGGGLVQAGGSLRLSCAASGSIFAHYTMGWYRQAPGKERELVASISYRATRTHYADSVKGRFTISRDNAKNTVYLQMNSLKPEDTAVYYCNKGGYPGLQWGNYPPYRSKDDYWGQGTQVTVSS,high polyreactivity
12,QVQLVESGGGLVQAGGSLRLSCAASGSIFAIYAMGWYRQAPGKERELVAAISYGDGSTYYADSVKGRFTISRDNAKNTVYLQMNSLKPEDTAVYYCAVGTRVKYDYWGQGTQVTVSS,high polyreactivity
13,QVQLVESGGGLVQAGGSLRLSCAASGSIFAKYAMGWYRQAPGKDREFVAAIRASGGRTYYADSVKGRFTISRDTAKNTVYLQMNSLKPEDSAVYYCNARKYLIPKMDYWGQGTQVTVSS,high polyreactivity
14,QVQLVESGGGLVQAGGSLRLSCAASGSIFAKYAMGWYRQAPGKEREFVAAIRASGGRTYYADSVKGRFTISRDNAKNTVYLKMNSLKPEDTAFYYCASDVSYRAGFDYWGQGTQVTVSS,high polyreactivity
15,QVQLVESGGGLVQAGGSLRLSCAASGSIFAPNAMGWYRQAPGKERELVAAITYGGGRTYYADSVKGRFTISRDNAKNTVYLQMNSLNPEDTAVYYCNALFSVRGYTWRSAAQDMDYWGQGTQVTVSS,high polyreactivity
16,QVQLVESGGGLVQAGGSLRLSCAASGSIFAPYAMGWYRQAPGKEREFVATITWGGGRTYYADSVKGRFTISRDNAKNTVYLQMNSLKPEDTAVYYCAAAIYYGSLGLFDYWGQGTQVTVSS,high polyreactivity
17,QVQLVESGGGLVQAGGSLRLSCAASGSIFAPYAMGWYRQAPGKERELVAAISWSGDSTYYADSVKGRFTISRDNAKNTVYLQMNSLKPEDTAVSYCAAAGGFDYDYWGQATQVTVSS,low polyreactivity
18,QVQLVESGGGLVQAGGSLRLSCAASGSIFAQYAMGWYRQAPGKERELVAAISRTGGGTYYADSVKGRFTISRDNAKNTVYLQMNSLKPEDTAVYYCAAVPGLFYLPYDYWGQGTQVTVSS,low polyreactivity
19,QVQLVESGGGLVQAGGSLRLSCAASGSIFAQYAMGWYRQAPGKERELVAAITRGGGNTYYADTVKGRFTISRDNAKNTVYLQMNSLKPEDTAVYYCAANRRDGYVYWGQGTQVTVSS,low polyreactivity
20,QVQLVESGGGLVQAGGSLRLSCAASGSIFARYALGWYRQAPGKERELVDAITRSGVSTYSADSVKGRFTISRDNAKNTVYLQMNSLKPEDTAVYYCNADYPIRSSPYGYYYWGQGTQVTVSS,high polyreactivity
21,QVQLVESGGGLVQAGGSLRLSCAASGSIFASNTMGWSRQATGKERELVAGITKIGSSTYYADSVKGRFTISRDNAKNTVYLQMNSLKPEDTEVYYCNAYGPNIYSSRYDYWGQGTQVTVSS,low polyreactivity
22,QVQLVESGGGLVQAGGSLRLSCAASGSIFASYAMGWYRQAPGKERELVAAISDGGGRTYYADSVKGRFTISRDNAKNTVYLQMNSLKPEDTAVYYCAAYAVYTYRRARGYWGQGTQVTVSS,high polyreactivity

row,Sequence,polyreactivity (PSR sort gate)
1,QVQLVESGGGLVQAGGSLRLSCAASGSIFASYAMGWYRQAPGKERELVAAISQNGSRTYYAVSVKGRFTISRDNAKYTVYLQMNSLKPEDTAVYYCAVLSRQYFRYGYDYWGQGTQVTVSS,high polyreactivity
2,QVQLVESGGGLVQAGGSLRLSCAASGSIFASYAMGWYRQAPGKERELVAAISRSGTSTRYADSVKGRFTISRDNAKNTVYLQMNSLKPEDTAVYYCAARWYVFFRKYDYWGQGTQVTVSS,high polyreactivity
3,QVQLVESGGGLVQAGGSLRLSCAASGSIFATYAMGWYIQAPGKERELVASITTDGSTHYADSVKGRFTISRDNAKNTVYLQMNSLKPEDTAVYYCNTETGPSPVPVYDTEFDSWGQGTQVTVSS,low polyreactivity
4,QVQLVESGGGLVQAGGSLRLSCAASGSIFAVNAMGLYRQAPGKERELVATITGRDGSTYYADSVKGRFTISRDNAKNTVYLQMNRLKPEDTAVYYCTARRKRTYDYWGQGTQVTVSS,high polyreactivity
5,QVQLVESGGGLVQAGGSLRLSCAASGSIFAWYAMGRYRQAPGKEMELVAAIRYRGDGTYYADSVKGRFTISRDNAKNTVYLQMNSLKPEDTAVYYCAADSRVYRGGYIYRYGYWGQGTQVTVSS,low polyreactivity
6,QVQLVESGGGLVQAGGSLRLSCAASGSIFAYNAMGWYRQAPGKERELVAAITGSGGSTDYADSVKGRFTISRDNAKNTVYLQMNSLKPEDTAVYYCNADWWSEWKLYDYWGQGTQVTVSS,low polyreactivity
7,QVQLVESGGGLVQAGGSLRLSCAASGSIFAYNAMGWYRQAPGKERELVAGISSRGGRTYYADSVKGRFTISRDNAKNTVYLQKNSLKPEDTAVYNCNKRSVPGTYYPTPVRYKYDYWGQGTQVTVSS,high polyreactivity
8,QVQLVESGGGLVQAGGSLRLSCAASGSIFAYYAMGWYRQAPGKERDLVAAISYSGDGTYYADSVKGRFTISRDNAKNTVYLQMNSLKREDTAVYYCATQIYPLDFYQGDWNDYWGQGTQVTVSS,low polyreactivity
9,QVQLVESGGGLVQAGGSLRLSCAASGSIFAYYAMGWYRQAPGKERELVAGIRISGGRTYYADSVKGRFTISRDTAKNTVYLQMNSLKPEDTAVYYCNARWRGFRTGAGDYWGQGTQVTVSS,high polyreactivity
10,QVQLVESGGGLVQAGGSLRLSCAASGSIFAYYVMGWYRPAPGKERELVAAITRAGSTYYADSVKGRFTISRDNGKNTVYLQMNSLKPEVSAVYYCDARVGYYFRPESYYWGQGTKVTVSS,high polyreactivity
11,QVQLVESGGGLVQAGGSLRLSCAASGSIFCVYAMGWYRQAPGKERELVAAISQSGGRTYYADSVKGRFTISRDNAKNTVYLQMNSLKPEDTAVYYCAAVVFNVYRRYWGQGTQVTVSS,high polyreactivity
12,QVQLVESGGGLVQAGGSLRLSCAASGSIFCYALGWNRQAPGKKRELVAAITGRCTSTYADSVKGRFTISLDNAKNTVYLQTNSLKPEDTAVYYCGPVGWFAEFLFSDIYGYYWGQGTQVTVSS,low polyreactivity
13,QVQLVESGGGLVQAGGSLRLSCAASGSIFDAYAMGWYRQAPGKERELVAAITTGGGSTYYADSVMGRFTISRDNAKNTVYLQMNSLKPEDTAVYYCARDYGKYKGYYWGQGTQVTVSS,low polyreactivity
14,QVQLVESGGGLVQAGGSLRLSCAASGSIFDDYAMGWYRQAPGKERELVAAISSSGTSTYYADSVKGRFTISRDNAKNTVYLQMNSLKQEDTAVYYCAARSAILKSGYLMDYWGQGTQVTVSS,low polyreactivity
15,QVQLVESGGGLVQAGGSLRLSCAASGSIFDDYAMGWYRQAPGKERELVAAISWSGGRTYYADSVKGRFTISRDNAKNTVYLQMNSLKPEDTAVYYCAATTGVRSRRYYYWGQGTQVTVSS,low polyreactivity
16,QVQLVESGGGLVQAGGSLRLSCAASGSIFDFNAMGWYRQAPGKERELVATIRYSGGSTYYADSVKGRFTISRDNAKNTVYLQMNSLKPEDTAVYYCIFRSPSYEYDYWGQGTQVTVSS,low polyreactivity
17,QVQLVESGGGLVQAGGSLRLSCAASGSIFDFNTMGWYIQAPGKERELVAAISQRTGRTYYADSVKGRFTISRDKAKNTVYLQMNSLKPEDTAVYYCAKVAVAGRGSGNYINHRFEYWGQGTQVTVSS,high polyreactivity
18,QVQLVESGGGLVQAGGSLRLSCAASGSIFDGYAMGWYRQAPGTERELVAGISGRGTRTYYADSVKGRFTISRDYAMNTVYLQMNSLKPEDTAVYYCNKAGYFHRLKYYYWGQGTQVTVSS,high polyreactivity
19,QVQLVESGGGLVQAGGSLRLSCAASGSIFDIYAMGWYRQAPGKERELVADITISGGSTYYADSVKGRFTISRDNAKNTVYLQMNSLKPEDTAVYYCAADVTVVLGYKYDYWGQGTQVTVSS,low polyreactivity
20,QVQLVESGGGLVQAGGSLRLSCAASGSIFDIYGMGWYRQAPGKERELVASISRGAGSTNYADSVKGRFTISRDNAKNTVYLQMNSLKPEDTAVYYCAAEVYVPDYFQHKFDVEYEYWGQGTQVTVSS,low polyreactivity
21,QVQLVESGGGLVQAGGSLRLSCAASGSIFDKNAMGWYRQAPGKERELVAAIRRTSTTYYADSVKGRFTISRDNAKKTVYLQMNSLKPEDTAVYYCAATYGSGYWYPRYYYWGQGTQVTVSS,high polyreactivity
